According to PMC12222023 (Nature, 2024):
Residue numbers refer to the chain shown, from its start.

T1: His-tagged SIRT1(E230K), bacterially expressed (human, UniProt Q96EB6 1-747, E230K)
T1 sequence (looked up): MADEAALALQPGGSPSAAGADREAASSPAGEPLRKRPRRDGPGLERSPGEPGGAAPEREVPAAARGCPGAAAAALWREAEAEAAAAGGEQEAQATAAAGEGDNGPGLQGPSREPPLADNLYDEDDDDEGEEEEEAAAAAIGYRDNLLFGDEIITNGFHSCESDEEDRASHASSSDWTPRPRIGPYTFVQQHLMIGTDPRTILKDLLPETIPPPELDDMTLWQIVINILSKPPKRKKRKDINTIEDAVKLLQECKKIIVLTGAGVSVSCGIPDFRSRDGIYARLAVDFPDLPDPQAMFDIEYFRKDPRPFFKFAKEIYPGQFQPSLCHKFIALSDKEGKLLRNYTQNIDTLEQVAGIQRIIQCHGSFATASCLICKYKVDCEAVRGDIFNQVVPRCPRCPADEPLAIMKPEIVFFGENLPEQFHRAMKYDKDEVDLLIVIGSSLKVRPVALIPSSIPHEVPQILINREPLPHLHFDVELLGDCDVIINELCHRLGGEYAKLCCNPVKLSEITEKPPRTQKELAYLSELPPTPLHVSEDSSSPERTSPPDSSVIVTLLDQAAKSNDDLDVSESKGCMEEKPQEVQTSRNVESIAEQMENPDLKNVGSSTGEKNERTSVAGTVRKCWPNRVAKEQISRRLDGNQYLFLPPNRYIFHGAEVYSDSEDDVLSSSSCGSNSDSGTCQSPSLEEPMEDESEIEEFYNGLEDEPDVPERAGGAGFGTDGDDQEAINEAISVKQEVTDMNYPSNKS

T2: His-tagged SIRT1, bacterially expressed (human, UniProt Q96EB6 1-747)
T2 sequence (looked up): T1 sequence (looked up) with K230E

B1: His-tagged TULP3, bacterially expressed (natural protein, human, UniProt O75386 1-442, looked up)
chain: MEASRCRLSPSGDSVFHEEMMKMRQAKLDYQRLLLEKRQRKKRLEPFMVQPNPEARLRRAKPRASDEQTPLVNCHTPHSNVILHGIDGPAAVLKPDEVHAPSVSSSVVEEDAENTVDTASKPGLQERLQKHDISESVNFDEETDGISQSACLERPNSASSQNSTDTGTSGSATAAQPADNLLGDIDDLEDFVYSPAPQGVTVRCRIIRDKRGMDRGLFPTYYMYLEKEENQKIFLLAARKRKKSKTANYLISIDPVDLSREGESYVGKLRSNLMGTKFTVYDRGICPMKGRGLVGAAHTRQELAAISYETNVLGFKGPRKMSVIIPGMTLNHKQIPYQPQNNHDSLLSRWQNRTMENLVELHNKAPVWNSDTQSYVLNFRGRVTQASVKNFQIVHKNDPDYIVMQFGRVADDVFTLDYNYPLCAVQAFGIGLSSFDSKLACE
B2: His-tagged TULP3(4G), bacterially expressed (natural protein, human, UniProt O75386 1-442, looked up)
chain: B1 chain with Y193G, P195G, K333G, P336G

Assays:
[1] = biological target: T1, His-tagged SIRT1(E230K), bacterially …; assay: SEC
[2] = biological target: T2, His-tagged SIRT1, bacterially expressed; assay: SEC

Binder	binding result [1]	binding result [2]
B1	binds	
B2		binds
